{"source": "patent US10175123B2", "about": "“MEMS-based calorimeter, fabrication, and use thereof” (THE TRUSTEES OF COLUMBIA UNIVERSITY IN THE CITY OF NEW YORK, priority 2013, dated 2019)", "key": {"[1]": {"test": "MEMS AC-DSC measurement of lysozyme unfolding", "assay_type": "physicochemical", "settings": "10 and 20 mg/mL, 0.1 M Glycine-HCl pH 2.5, 25 to 82 °C at 5 °C/min, AC modulation 1, 5 or 10 Hz; depends on modulation frequency", "from_the_text": "The MEMS AC-DSC device calibrated above was used to measure the thermal behavior of protein unfolding.\nMeanwhile, the specific heat capacity (c) of the protein as a function of temperature can be computed from the thermopile voltage amplitude (FIG. 19)."}, "[2]": {"settings": "typical range of published data; cited from earlier work"}, "[3]": {"test": "MEMS DSC measurement of lysozyme unfolding", "assay_type": "physicochemical", "settings": "1 to 20 mg/mL in 0.1 M Glycine-HCl buffer pH 2.5, scan 25-75 °C at 5 °C/min", "experimental": "DSC measurements of biomolecules were performed using the calibrated microdevice, whose sample chamber and reference chamber were respectively filled with biological sample and buffer solutions, scanned in a range of temperature of interest. The temperature sensors were used to monitor the temperatures of calorimetric chambers while the device output was obtained in real time to compute the biomolecular thermal power. Before DSC measurements, the baseline in device output, i.e., the thermopile output voltage in the absence of a differential power input, during temperature scanning was measured with both calorimetric chambers filled with buffer solutions. […]\nThe thermopile output voltage as a function of temperature, corrected by baseline subtraction, was measured at varying protein concentrations ranging from 1 to 20 mg/mL (FIG. 10).\nDespite the amplitude difference of device output at various protein concentrations, they all yielded consistent estimates of the thermodynamic properties associated with the protein unfolding process. In particular, the profile shape of c was generally not influenced by protein concentration, and ΔH was consistently determined to be approximately 450 kJ/mol with a corresponding melting temperature Tm of approximately 55° C."}, "[4]": {"test": "Polymer MEMS DSC measurement of lysozyme unfolding", "assay_type": "physicochemical", "settings": "0.1 M Glycine-HCl buffer pH 2.5, 5 K/min, all concentrations except 1 mg/mL", "experimental": "Before DSC measurements, the baseline, i.e., the thermopile output voltage in the absence of a differential power input, during temperature scanning in the range of interest was recorded with both calorimetric channels filled with buffer solutions. After which, characterizations of biomolecules were performed with the calorimetric channels, respectively filled with a biological sample and a buffer solutions, and scanned in the same range with pre-specified rate. The temperature sensors were used to monitor the temperatures of calorimetric channels, while the device output was obtained in real time to compute the biomolecular thermal power.\nThe calibrated polymer MEMS DSC device was then exploited to characterize protein unfolding. Glycine-HCl buffer (0.1 M, pH 2.5) was filled in both sample and reference calorimetric channels while the device was scanned at a constant rate of 5 K/min. […]\nThe thermopile differential voltage as a function of temperature, corrected by baseline subtraction, was measured at varying concentrations ranging from 1 to 20 mg/mL (FIG. 42). […] Furthermore, the differential heat capacity as a function of temperature and the calibrated device sensitivity can be calculated from the device voltage output by Equation 7. The sample heat capacity as a function of temperature was determined by: […]"}}, "data": [{"substance": "lysozyme: targeted sample biomolecule, purchased from Sigma Aldrich (lyophilized powder, protein ≥90%)", "values": [{"measurement": "apparent melting temperature (Tm)", "setting": "[1]", "value": "55-58 °C"}, {"measurement": "Tm, published data", "setting": "[2]", "value": "55-58.9 °C"}, {"measurement": "ΔH of unfolding, published data", "setting": "[2]", "value": "90.1 to 105", "unit": "kcal/mol"}, {"measurement": "melting temperature Tm", "setting": "[3]", "value": "approximately 55 °C"}, {"measurement": "total change of molar enthalpy (ΔH) of unfolding", "setting": "[3]", "value": "approximately 450 kJ/mol"}, {"measurement": "melting temperature Tm", "setting": "[4]", "value": 54.71, "unit": "°C"}, {"measurement": "total enthalpy change per mole (ΔH) of unfolding", "setting": "[4]", "value": 101, "unit": "kcal/mol"}]}]}
